Bounds are passed on as bounds.

This note sets out measurements from US20240270840A1 (NECTIN THERAPEUTICS, published 2024).

In assay [1] the target is T1, Human CD112R expressed on cells (human, UniProt Q6DKI7 1-326).
T1 construct: whole, on cells; also called HuCD112R; hCD112R
T1 sequence (looked up): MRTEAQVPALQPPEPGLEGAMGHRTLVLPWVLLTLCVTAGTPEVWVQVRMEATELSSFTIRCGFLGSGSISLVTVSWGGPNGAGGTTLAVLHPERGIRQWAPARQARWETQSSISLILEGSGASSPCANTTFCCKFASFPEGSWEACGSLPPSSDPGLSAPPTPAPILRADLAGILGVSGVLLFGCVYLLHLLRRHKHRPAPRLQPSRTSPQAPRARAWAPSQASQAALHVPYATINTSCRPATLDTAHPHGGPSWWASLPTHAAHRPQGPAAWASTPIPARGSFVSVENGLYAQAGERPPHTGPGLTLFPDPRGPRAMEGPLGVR
Kind of assay: FACS, chimeric mAb 99-0.4 nM in three-fold dilutions on HEK 293T cells overexpressing CD112R, anti-human-APC 1:200. As for the experimental part:
For detection, anti-human-APC antibody (Ab) was used at 1:200 dilution, and cell binding was analyzed by FACS. FIG. 3C—8866 cells ([…]) overexpressing human Nectin-2 were incubated with 10 μg/ml of CD112R-Fc in the presence of isotype control Ab, or with the indicated clones at 4 μg/ml. Bound CD112R-Fc was detected by anti-mouse-Dy-647 1:250 dilution and analyzed by FACS. The blocking of CD112R binding exceeded 95% by all the variants.
Binding was analyzed by FACS and used for calculation of EC-50 values. […] The N31S variant, engineered to remove an N-Linked glycosylation motif at the CDR1 of the heavy chain, had improved (sub-nM) binding to human CD112R in this cell-based assay.

In assay [2] the target is Cynomolgus monkey (Macaca fascicularis) CD112R expressed on cells (cynomolgus monkey (Macaca fascicularis)). Kind of assay: flow cytometry on 293T cells expressing cynomolgus CD112R; 99-0.05 nM, three-fold dilutions.
The target in assay [3] is T1, Human CD112R expressed on cells. Kind of assay: flow cytometry competition on 293T cells overexpressing CD112R; antibody 40-0.018 nM; competitor hNectin-2-mIgG2a at 125 nM. The protocol: The humanized anti-CD112R antibodies are potent blockers of CD112R—Nectin-2 interactions. […] The antibodies were added in a range of concentrations of 40-0.018 nM in a series of three-fold dilutions. The amount of bound hNectin-2-mIgG2a was detected by anti-mouse antibodies fluorescently labeled with Dy-light 647 (115-606-071 Jackson immunoresearch) and analyzed by FACS.

Assay [4] addresses T2, Human CD112R (PVRIG) (human, UniProt Q6DKI7 41-171, limits assumed).
T2 sequence (looked up): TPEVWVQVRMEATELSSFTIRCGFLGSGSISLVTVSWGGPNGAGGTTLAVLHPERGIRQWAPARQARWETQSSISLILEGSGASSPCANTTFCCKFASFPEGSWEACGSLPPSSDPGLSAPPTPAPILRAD
Kind of assay: SPR (Biacore); purified full antibody; * limit of the Biacore instrument sensitivity. Background: Surface plasmon resonance follows binding to a sensor surface in real time, without labels.

Assay [5] addresses T1, Human CD112R expressed on cells. Kind of assay: flow cytometry on 293T cells expressing human CD112R; 99-0.05 nM, three-fold dilutions. As for the experimental part:
(§1) The humanized mAbs were tested for binding of endogenous and overexpressed human and cynomolgus CD112R.

Assay [6] concerns the target Cynomolgus monkey (Macaca fascicularis) CD112R expressed on cells (cynomolgus monkey (Macaca fascicularis)). Kind of assay: flow cytometry on 293T cells; EC50 on cynomolgus CD112R against EC50 on human CD112R.
In assay [7] the target is T1, Human CD112R expressed on cells. Kind of assay: flow cytometry on human NK cells (endogenous CD112R). The protocol:
as §1
(§2) Table 7 summarizes EC50 values calculated based on the binding curves of selected humanized mAbs to cynomolgus CD8 T cells and human NK cells, both cells expressing endogenous CD112R of the relevant species. Assay was performed as in Table 6. An anti-CD112R mAb disclosed in WO2016134333 was used for comparison. All the humanized variants have a complete cross-reactivity between the human and cynomolgus targets.
A general note: Flow cytometry measures light scatter and fluorescence of single cells or particles in a stream.

For assay [8], the target named is Cynomolgus monkey (Macaca fascicularis) CD112R expressed on cells (cynomolgus monkey (Macaca fascicularis)). Kind of assay: flow cytometry on cynomolgus CD8 T cells (endogenous CD112R).
Assay [9] addresses T1, Human CD112R expressed on cells. Kind of assay: flow cytometry on human NK cells (endogenous CD112R). This is another data set of the same source.
For assay [10] the target is unchanged. Kind of assay: flow cytometry EC-50 on human NK cells, against the reference Ab (member assigned from Table 7).
Assay [11] shares this target. Kind of assay: flow cytometry; max binding on human NK cells against max binding on cynomolgus CD8 T cells. As for the experimental part: as §1, §2
The target of assay [12] is Cynomolgus monkey (Macaca fascicularis) CD112R expressed on cells (cynomolgus monkey (Macaca fascicularis)). Kind of assay: flow cytometry; EC-50 on cynomolgus CD8 T cells against EC-50 on human NK cells.
The target of assay [13] is T2, Human CD112R (PVRIG). Kind of assay: SPR (Biacore); purified full antibody.

B1: Clone 15 (antibody, V domains shown)
VH: QVQLQQPGAELVKPGTSVKLSCKASGYNFTSYWINWVKLRPGQGLEWIGDIFPGSYSPNYNKKFKRKATLTVDTSSSTAYMQLSSLASEDSALYYCAGGYFDVWGAGTTVTVSS
VL: DIVMTQSPSSLSVSAGEKVTMSCKSSQSLLNSGSQKNYLAWYQQKPGQPPKLLIYGASTRESGVPDRFTGSGSGTDFTLTISFVQAEDLAVYYCQNDHSYPYTFGGGTKLEIK
In [1], B1 had an EC50 of 1.29 nM.

B2: H11K1 (full humanized antibody) (antibody, V domains shown)
VH: QVQLVQSGAEVKKPGSSVKVSCKASGYTFTSYWINWVRQAPGQGLEWIGDIYPGSYIPNYNEKFKNRATLTVDTSASTAYMELSSLRSEDTAVYYCAGGYFDVWGQGTTVTVSS
VL: DIVMTQSPDSLSVSLGERATINCKSSQSLLSSGNQKNYLAWYQQKPGQPPKLLIYGASTRESGVPDRFTGSGSGTDFTLTISSLQAEDVAVYYCQNDHSYPYTFGQGTKLEIK
notes: Humanized full antibody, human IgG1; also called VH11K1
Consider B2, for which the EC50 in [2] came to 0.72 nM. In assay [3], the EC50 came out at 0.29 nM and the EC-90 was found to be 10.7 nM. Moreover, in assay [4], binding was characterised by a dissociation constant (Kd) of 0.0167 nM, the “Relative Kd (against VH0K0 N28T)” value came to 0.13, the koff amounted to 4.79e-06 s⁻¹ and the kon was 287000 M⁻¹ s⁻¹. In assay [5], this molecule displayed an EC50 of 0.3 nM. For the same molecule, in assay [6], the Ratio Cyno/Hu (EC50) worked out at 2.43. Also, in assay [7], the EC50 came to 0.91 nM. In assay [8], this molecule registered an EC50 of 1.46 nM and a Max binding Cyno (MFI a.u - background) of 820 MFI a.u. Also, the “Max binding Hu (MFI a.u - background)” value in assay [9] amounted to 982 MFI a.u. For the same molecule, the “fold improved binding compared to the reference Ab” value (from here on “fold improved binding”) in assay [10] was over 2 fold. Also, the “Ratio Hu/Cyno (max binding)” value in [11] was 1.2. Moreover, the Ratio Cyno/Hu (EC-50) in [12] came out at 1.61.

B3: H11K2 (full humanized antibody) (antibody, V domains shown)
VH: QVQLVQSGAEVKKPGSSVKVSCKASGYTFTSYWINWVRQAPGQGLEWIGDIYPGSYIPNYNEKFKNRATLTVDTSASTAYMELSSLRSEDTAVYYCAGGYFDVWGQGTTVTVSS
VL: DIVMTQSPDSLAVSLGERATINCKSSQSLLSSGNQKNYLAWYQQKPGQPPKLLIYGASTRESGVPDRFTGSGSGTDFTLTISSLQAEDVAVYYCQNDHSYPYTFGQGTKLEIK
notes: Humanized full antibody, human IgG1; also called VH11K2
B3 gave an EC50 in assay [2] of 0.71 nM. Moreover, in [3], the EC50 is 0.32 nM and the EC-90 came out at 9.9 nM. Further, the response in [5] was half-maximal at 0.28 nM (EC50). Also, the Ratio Cyno/Hu (EC50) in assay [6] came to 2.54. The molecule further displayed an EC50 in assay [7] of 1.06 nM. In [8], this molecule came in with an EC50 of 1.29 nM and a Max binding Cyno (MFI a.u - background) of 839 MFI a.u. Also, in assay [9], the “Max binding Hu (MFI a.u - background)” value is 1020 MFI a.u. Moreover, the “Ratio Hu/Cyno (max binding)” value in [11] came out at 1.21. For the same molecule, in assay [12], the Ratio Cyno/Hu (EC-50) worked out at 1.22. Further, in assay [13], the Kd was 0.112 nM, the “Relative Kd (against VH0K0 N28T)” value amounted to 0.89, the koff was determined as 3.77e-05 s⁻¹ and the kon stood at 336000 M⁻¹ s⁻¹.

B4: VH10K2 (full humanized antibody) (antibody, V domains shown)
VH: QVQLVQSGAEVKKPGSSVKVSCKASGYTFTSYWINWVRQAPGQGLEWIGDIYPGSYIPNYNEKFKNRATLTVDTSASTAYMELSSLASEDTALYYCAGGYFDVWGQGTTVTVSS
VL: DIVMTQSPDSLAVSLGERATINCKSSQSLLSSGNQKNYLAWYQQKPGQPPKLLIYGASTRESGVPDRFTGSGSGTDFTLTISSLQAEDVAVYYCQNDHSYPYTFGQGTKLEIK
notes: Humanized full antibody, human IgG1
For B4, in assay [2], the half-maximal effective concentration (EC50) worked out at 0.42 nM. Besides, the EC50 in assay [5] turned out to be 0.4 nM. For the same molecule, the Ratio Cyno/Hu (EC50) in assay [6] turned out to be 1.07. For the same molecule, the EC50 in assay [7] was found to be 0.86 nM. In [8], this molecule displayed an EC50 of 1.45 nM and a Max binding Cyno (MFI a.u - background) of 914 MFI a.u. Also, the “Max binding Hu (MFI a.u - background)” value in [9] turned out to be 975 MFI a.u. Also, in assay [10], the “fold improved binding” value was over 2 fold. Also, the “Ratio Hu/Cyno (max binding)” value in assay [11] came out at 1.07. In assay [12], the Ratio Cyno/Hu (EC-50) was determined as 1.69. For the same molecule, in [13], the Kd is 0.119 nM, the “Relative Kd (against VH0K0 N28T)” value was determined as 0.94, the koff came to 4.27e-05 s⁻¹ and the kon was found to be 359000 M⁻¹ s⁻¹.

B5: VH10K3 (full humanized antibody) (antibody, V domains shown)
VH: QVQLVQSGAEVKKPGSSVKVSCKASGYTFTSYWINWVRQAPGQGLEWIGDIYPGSYIPNYNEKFKNRATLTVDTSASTAYMELSSLASEDTALYYCAGGYFDVWGQGTTVTVSS
VL: DIVMTQSPDSLAVSLGERATINCKSSQSLLSSGNQKNYLAWYQQKPGQPPKLLIYGASTRESGVPDRFSGSGSGTDFTLTISSLQAEDVAVYYCQNDHSYPYTFGQGTKLEIK
notes: as for B4
B5 came in with an EC50 in [2] of 0.5 nM. Moreover, the EC50 in [5] was found to be 0.3 nM. For the same molecule, in assay [6], the Ratio Cyno/Hu (EC50) was 1.67. The molecule also yielded an EC50 in assay [7] of 0.77 nM. In [8], this molecule returned an EC50 of 1.39 nM and a Max binding Cyno (MFI a.u - background) of 933 MFI a.u. Further, the “Max binding Hu (MFI a.u - background)” value in assay [9] is 988 MFI a.u. For the same molecule, the “fold improved binding” value in assay [10] was over 2 fold. Further, the “Ratio Hu/Cyno (max binding)” value in assay [11] worked out at 1.06. For the same molecule, the Ratio Cyno/Hu (EC-50) in assay [12] was 1.81. Also, in assay [13], the Kd is 0.121 nM, the “Relative Kd (against VH0K0 N28T)” value stood at 0.96, the koff came to 4.36e-05 s⁻¹ and the kon came to 361000 M⁻¹ s⁻¹.

B6: H11K3 (full humanized antibody) (antibody, V domains shown)
VH: QVQLVQSGAEVKKPGSSVKVSCKASGYTFTSYWINWVRQAPGQGLEWIGDIYPGSYIPNYNEKFKNRATLTVDTSASTAYMELSSLRSEDTAVYYCAGGYFDVWGQGTTVTVSS
VL: DIVMTQSPDSLAVSLGERATINCKSSQSLLSSGNQKNYLAWYQQKPGQPPKLLIYGASTRESGVPDRFSGSGSGTDFTLTISSLQAEDVAVYYCQNDHSYPYTFGQGTKLEIK
notes: Humanized full antibody comprising hIgG1 Fc; also called VH11K3
Molecule B6 showed an EC50 in assay [2] of 0.6 nM. Moreover, in [3], the EC50 came to 0.26 nM and the EC-90 is 9.6 nM. Also, in [4], the Kd is 0.0788 nM, the “Relative Kd (against VH0K0 N28T)” value was determined as 0.63, the koff was found to be 2.42e-05 s⁻¹ and the on-rate constant (kon) worked out at 307000 M⁻¹ s⁻¹. This molecule showed an EC50 in assay [5] of 0.31 nM. Moreover, in assay [6], the Ratio Cyno/Hu (EC50) was determined as 1.93. The same molecule returned an EC50 in assay [7] of 1.11 nM. Moreover, in assay [8], the EC50 was 1.27 nM and the Max binding Cyno (MFI a.u - background) stood at 833 MFI a.u. The “Max binding Hu (MFI a.u - background)” value in assay [9] is 1000 MFI a.u. For the same molecule, in assay [11], the “Ratio Hu/Cyno (max binding)” value is 1.21. The Ratio Cyno/Hu (EC-50) in [12] amounted to 1.14.

For orientation: EC50 means the concentration needed to bring the measured effect to its halfway point. For orientation: Kd means the concentration at which binding is half-saturated. The term koff denotes the rate constant with which the complex falls apart. One may read the kon as the rate constant with which the complex forms.
